# According to patent US7595168B2, “Method of screening for substances useful for transdifferentiation of microglia into neurons” (Eisai R&D Management Co., Ltd., priority 2006, dated 2009):
# Tested on: microglia
# Assay: Action of BMP on transdifferentiation of microglia into neurons; immunocytochemical marker quantification
# Format: cell-based, rat
# Conditions: day 5 after enrichment; 100 ng/ml noggin in medium containing 70% FCS, 2 days
# Method: The cerebral cortex was isolated from newborn Wistar rats aged from 0 to 1 day (obtained from Shimizu Experimental Material Co. Ltd.) and cultured in an Eagle's minimum essential medium (EMEM) supplemented with 10% fetal calf serum (FCS) and […] insulin at 37° C. in an atmosphere of 5% CO2. After 14 to 16 days of incubation, microglia were isolated and prepared by the enriching procedure.
# The cells were fixed with 4% paraformaldehyde and then reacted individually with an anti-CD11b antibody ([…], Chemicon International) or an anti-MAP2 antibody ([…], DakoCytomation) as a primary antibody and with Cy2-conjugated goat anti-mouse IgG (H+L) (Jackson ImmunoResearch) or Cy3-conjugated goat anti-rabbit IgG (H+L) (Jackson ImmunoResearch) as a secondary antibody. The CD11b is a marker for microglia and the MAP2 is a marker for neurons. […]
# After immunostaining the cells, images (200× magnification) of 8 fields per case were randomly obtained using a fluorescent microscope and MataMorph software (Molecular Devices). The numbers of cells expressing individual markers were counted and the average rates to the total number of cells were used as data. […]
# Quantification was carried out in the same manner as in Example 1.
molecule,measurement,value
"noggin: a BMP inhibitor (N6784), Sigma (protein, UniProt Q13253 28-232, looked up) Noggin: QHYLHIRPAPSDNLPLVDLIEHPDPIFDPKEKDLNETLLRSLLGGHYDPGFMATSPPEDRPGGGGGAAGGAEDLAELDQLLRQRPSGAMPSEIKGLEFSEGLAQGKKQRLSKKLRRKLQMWLWSQTFCPVLYAWNDLGSRFWPRYVKVGSCFSKRSCSVPEGMVCKPSKSVHLTVLRWRCQRRGGQRCGWIPIQYPIISECKCSC",effect on transdifferentiation of microglia into neurons by 70% serum,this transdifferentiation was suppressed
